In patent publication US20090011464A1 (published 2009):

Target: T1, human α4β7 integrin (human, UniProt P13612 34-1032; P26010 20-798)
T1 construct: whole, on cells; also called α4β7 integrin on HuT 78 cells; α4β7 on RPMI 8866 cells
Assay: inhibition of adhesion of α4β7+ RPMI 8866 cells to plate-bound human MAdCAM-1-Ig chimera; antibody varied from 15.0 to 0.00075 µg/ml
Description: Wells were then washed once with wash buffer (50 mM Tris HCl, 0.14 M NaCl, 1 mM MnC12, pH 7.2) using a microplate autowasher (Bio-Tek Instruments, Winooski, Vt.) and blocked for 1.5 hrs at 37° C. with 100 μL of 10% FBS diluted in PBS.
BCECF (2′,7′-bis-(2-carboxyethyl)-5-(and 6)-carboxy fluorescein, acetoxymethyl ester; Molecular Probes, Inc., Eugene, Oreg.) was reconstituted to 50 μg/ml in DMSO and added to the cell suspension to a final dilution of 1:500. After incubating for 30 minutes at 37° C., cells were then washed in assay buffer (HBSS with 2% Fetal Bovine Serum, 25 mM HEPES, penicillin/streptomycin, pH 7.2), and 50,000 cells were added to each well of a V-bottom 96-well plate. […] The plate coated with MAdCAM-1 chimera was washed to remove blocking buffer, and these fluorescently labeled RPMI 8866 cells were then transferred to each well. The plate was placed on a platform shaker (New Brunswick Scientific Co., Inc., Edison, N.J.) at 40 RPM for 30 minutes at room temperature wrapped in aluminum foil. Unbound cells were removed by a single wash step and fluorescence subsequently measured (excite at 485 nm, read at 535 nm) with a Fluorescence Concentrator Analyzer (IDEXX Laboratories, Inc., Westbrook, Me.) before and after washing.

IC50: 1.8 ng/mL
B1: murine Act-1 monoclonal antibody (antibody, mouse IgG1, V domains shown)
VH: QVQLQQPGAELVKPGTSVKLSCKGYGYTFTSYWMHWVKQRPGQGLEWIGEIDPSESNTNYNQKFKGKATLTVDISSSTAYMQLSSLTSEDSAVYYCARGGYDGWDYAIDYWGQGTSVTVSS
VL: DVVVTQTPLSLPVSFGDQVSISCRSSQSLAKSYGNTYLSWYLHKPGQSPQLLIYGISNRFSGVPDRFSGSGSGTDFTLKISTIKPEDLGMYYCLQGTHQPYTFGGGTKLEIK
notes: Mouse IgG1/kappa from the Act-1 hybridoma (ATCC PTA-3663); also called mAb Act-1; mouse Act-1 antibody
